We go through one protein from article PMC9309405, “The integration of AlphaFold-predicted and crystal structures of human trans-3-hydroxy-L-proline dehydratase reveals a regulatory catalytic mechanism” (Computational and Structural Biotechnology Journal, 2022).

As usually defined, the Km is the concentration of substrate that gives half-maximal velocity.

Substrate in the data set: O=C(O)[C@H]1NCC[C@@H]1O
In words: purified protein. It counts as biochemical, Homo sapiens. The following applies: oxidizing conditions, without DTT; 1xPBS; substrate-inhibition fit; with 1 mM DTT a separate lower KM is reported; substrate named only hydroxyproline in methods.

B1: human trans-3-Hydroxy-L-proline dehydratase (hL3HYPDH) (Homo sapiens) (protein)
chain: MESALAVPRLPPHDPGTPVLSVVDMHTGGEPLRIVLAGCPEVSGPTLLAKRRYMRQHLDHVRRRLMFEPRGHRDMYGAVLVPSELPDAHLGVLFLHNEGYSSMCGHAVLALGRFALDFGLVPAPPAGTREARVNIHCPCGLVTAFVACEDGRSHGPVRFHSVPAFVLATDLMVDVPGHGKVMVDIAYGGAFYAFVTAEKLGLDICSAKTRDLVDAASAVTEAVKAQFKINHPDSEDLAFLYGTILTDGKDAYTKEPTTNICVFADEQVDRSPTGSGVTARIALQYHKGLLELNQMRAFKSSATGSVFTGKAVREAKCGDFKAVIVEVSGQAHYTGTASFIIEDDDPLRDGFLLK
notes: recombinant, cloned in pET28b, E. coli BL21(DE3), His-Trap then Superdex 200; homodimer; crystal model residues 4-354; Cys104-Cys137 intramolecular disulphide
Regarding B1, the Km amounted to 416.7 µM.
